# Measurements taken from the Immune Epitope Database (IEDB).
# Legend:
# HLA-B*15:09 = assay: IEDB peptide-MHC binding, purified MHC/competitive/fluorescence; filed as Kd, often an IC50 or EC50 that approximates it; ≥ and ≤ were set here for values at or beyond the usual limits of such assays; conditions: source organism: Salmonella enterica subsp. enterica serovar Typhi
# HLA-B*15:42 = assay: as above; conditions: source organism: Salmonella enterica subsp. enterica serovar Typhi
# HLA-A*25:01 = assay: as above; conditions: source organism: Salmonella enterica subsp. enterica serovar Typhi
# HLA-C*06:02 = assay: as above; conditions: source organism: Salmonella enterica subsp. enterica serovar Typhi
# HLA-A*30:01 = assay: as above; conditions: source organism: Salmonella enterica subsp. enterica serovar Typhi
# HLA-A*26:01 = assay: as above; conditions: source organism: Salmonella enterica subsp. enterica serovar Typhi
# HLA-C*14:02 = assay: as above; conditions: source organism: Salmonella enterica subsp. enterica serovar Typhi
# HLA-B*40:01 = assay: as above; conditions: source organism: Salmonella enterica subsp. enterica serovar Typhi
# HLA-B*44:02 = assay: as above; conditions: source organism: Salmonella enterica subsp. enterica serovar Typhi
# HLA-A*02:01 = assay: as above; conditions: source organism: Salmonella enterica subsp. enterica serovar Typhi
# HLA-A*68:23 = assay: as above; conditions: source organism: Salmonella enterica subsp. enterica serovar Typhi
# HLA-B*27:05 = assay: as above; conditions: source organism: Salmonella enterica subsp. enterica serovar Typhi
# HLA-A*31:01 = assay: as above; conditions: source organism: Salmonella enterica subsp. enterica serovar Typhi
# HLA-B*39:01 = assay: as above; conditions: source organism: Salmonella enterica subsp. enterica serovar Typhi
# HLA-B*45:06 = assay: as above; conditions: source organism: Salmonella enterica subsp. enterica serovar Typhi
# HLA-B*38:01 = assay: as above; conditions: source organism: Salmonella enterica subsp. enterica serovar Typhi
# HLA-A*02:06 = assay: as above; conditions: source organism: Salmonella enterica subsp. enterica serovar Typhi
# HLA-A*03:01 = assay: as above; conditions: source organism: Salmonella enterica subsp. enterica serovar Typhi
# HLA-B*18:01 = assay: as above; conditions: source organism: Salmonella enterica subsp. enterica serovar Typhi
# HLA-A*69:01 = assay: as above; conditions: source organism: Salmonella enterica subsp. enterica serovar Typhi
# HLA-A*11:01 = assay: as above; conditions: source organism: Salmonella enterica subsp. enterica serovar Typhi
# HLA-A*02:03 = assay: as above; conditions: source organism: Salmonella enterica subsp. enterica serovar Typhi
# HLA-B*58:01 = assay: as above; conditions: source organism: Salmonella enterica subsp. enterica serovar Typhi
# HLA-C*15:02 = assay: IEDB peptide-MHC binding, purified MHC/direct/fluorescence; filed as Kd, often an IC50 or EC50 that approximates it; ≥ and ≤ were set here for values at or beyond the usual limits of such assays; conditions: source organism: Salmonella enterica subsp. enterica serovar Typhi str. CT18
sequence,measurement,setting,value
SVIDHIHYM,Kd,HLA-B*15:09,≥ 20 µM
same,Kd,HLA-B*15:42,≥ 5 µM
same,Kd,HLA-A*25:01,0.0137 µM
same,Kd,HLA-C*06:02,0.026 µM
same,Kd,HLA-A*30:01,≥ 20 µM
same,Kd,HLA-A*26:01,0.00028 µM
same,Kd,HLA-C*14:02,0.0384 µM
same,Kd,HLA-B*40:01,≥ 20 µM
same,Kd,HLA-B*44:02,≥ 20 µM
same,Kd,HLA-A*02:01,0.0049 µM
same,Kd,HLA-A*68:23,0.0002 µM
same,Kd,HLA-B*27:05,≥ 20 µM
same,Kd,HLA-A*31:01,0.231 µM
same,Kd,HLA-B*39:01,2.8 µM
same,Kd,HLA-B*45:06,≥ 5 µM
same,Kd,HLA-B*38:01,≥ 20 µM
same,Kd,HLA-A*02:06,≤ 0.001 µM
same,Kd,HLA-A*03:01,≥ 20 µM
same,Kd,HLA-B*18:01,≥ 20 µM
same,Kd,HLA-A*69:01,0.0006 µM
same,Kd,HLA-A*11:01,0.0717 µM
same,Kd,HLA-A*02:03,0.0031 µM
same,Kd,HLA-B*58:01,0.29 µM
same,Kd,HLA-C*15:02,0.095 µM
